B1: AURKA-Venus WT [human] / TPX2 [human (endogenous in U2OS)] (parent complex)
chain 1: MDRSKENCISGPVKATAPVGGPKRVLVTQQFPCQNPLPVNSGQAQRVLCPSNSSQRIPLQAQKLVSSHKPVQNQKQKQLQATSVPHPVSRPLNNTQKSKQPLPSAPENNPEEELASKQKNEESKKRQWALEDFEIGRPLGKGKFGNVYLAREKQSKFILALKVLFKAQLEKAGVEHQLRREVEIQSHLRHPNILRLYGYFHDATRVYLILEYAPLGTVYRELQKLSKFDEQRTATYITELANALSYCHSKRVIHRDIKPENLLLGSAGELKIADFGWSVHAPSSRRTTLCGTLDYLPPEMIEGRMHDEKVDLWSLGVLCYEFLVGKPPFEANTYQETYKRISRVEFTFPDFVTEGARDLISRLLKHNPSQRPMLREVLEHPWITANSSKPSNCQNKESASKQS
chain 2: MSQVKSSYSYDAPSDFINFSSLDDEGDTQNIDSWFEEKANLENKLLGKNGTGGLFQGKTPLRKANLQQAIVTPLKPVDNTYYKEAEKENLVEQSIPSNACSSLEVEAAISRKTPAQPQRRSLRLSAQKDLEQKEKHHVKMKAKRCATPVIIDEILPSKKMKVSNNKKKPEEEGSAHQDTAEKNASSPEKAKGRHTVPCMPPAKQKFLKSTEEQELEKSMKMQQEVVEMRKKNEEFKKLALAGIGQPVKKSVSQVTKSVDFHFRTDERIKQHPKNQEEYKEVNFTSELRKHPSSPARVTKGCTIVKPFNLSQGKKRTFDETVSTYVPLAQQVEDFHKRTPNRYHLRSKKDDINLLPSKSSVTKICRDPQTPVLQTKHRARAVTCKSTAELEAEELEKLQQYKFKARELDPRILEGGPILPKKPPVKPPTEPIGFDLEIEKRIQERESKKKTEDEHFEFHSRPCPTKILEDVVGVPEKKVLPITVPKSPAFALKNRIRMPTKEDEEEDEPVVIKAQPVPHYGVPFKPQIPEARTVEICPFSFDSRDKERQLQKEKKIKELQKGEVPKFKALPLPHFDTINLPEKKVKNVTQIEPFCLETDRRGALKAQTWKHQLEEELRQQKEAACFKARPNTVISQEPFVPKKEKKSVAEGLSGSLVQEPFQLATEKRAKERQELEKRMAEVEAQKAQQLEEARLQEEEQKKEELARLRRELVHKANPIRKYQGLEIKSSDQPLTVPVSPKFSTRFHC

Variants of: B1
Assay: in situ proximity ligation assay (isPLA); mitotic U2OS cells, endogenous TPX2, n ≥ 10 cells; read off a plot

Variant | response [AU]
chain 1 R371A, chain 1 L374A | ~1.3
chain 1 S155R | ~2.6
chain 1 L374I | ~3.7
chain 1 R371A | ~3
